From patent EP1106701A1

What was measured:
[1] = target: standard human trypsin sample enclosed in the Kodazyme Trypsin M·EIA kit (human); assay: Kodazyme Trypsin M·EIA sandwich EIA, standard human trypsin 10 ng/ml
[2] = target: standard human trypsin sample enclosed in the Kodazyme Trypsin M·EIA kit (human); assay: Kodazyme Trypsin M·EIA sandwich EIA, standard human trypsin 50 ng/ml
[3] = target: canine anionic trypsin (canine (dog)); assay: Kodazyme Trypsin M·EIA sandwich EIA, canine anionic trypsin 25 ng/ml
[4] = target: canine anionic trypsin (canine (dog)); assay: Kodazyme Trypsin M·EIA sandwich EIA, canine anionic trypsin 50 ng/ml
[5] = target: standard human trypsin sample enclosed in the Kodazyme Trypsin M·EIA kit (human); assay: Kodazyme Trypsin M·EIA sandwich EIA, standard human trypsin 100 ng/ml
[6] = target: standard human trypsin sample enclosed in the Kodazyme Trypsin M·EIA kit (human); assay: Kodazyme Trypsin M·EIA sandwich EIA, standard human trypsin 200 ng/ml
[7] = target: standard human trypsin sample enclosed in the Kodazyme Trypsin M·EIA kit (human); assay: Kodazyme Trypsin M·EIA sandwich EIA, standard human trypsin 400 ng/ml
[8] = target: standard human trypsin sample enclosed in the Kodazyme Trypsin M·EIA kit (human); assay: Kodazyme Trypsin M·EIA sandwich EIA, standard human trypsin 600 ng/ml
[9] = target: canine cationic trypsin (canine (dog)); assay: Kodazyme Trypsin M·EIA sandwich EIA, canine cationic trypsin 25 ng/ml
[10] = target: canine cationic trypsin (canine (dog)); assay: Kodazyme Trypsin M·EIA sandwich EIA, canine cationic trypsin 50 ng/ml
[11] = target: canine anionic trypsin (canine (dog)); assay: Kodazyme Trypsin M·EIA sandwich EIA, canine anionic trypsin 100 ng/ml
[12] = target: canine anionic trypsin (canine (dog)); assay: Kodazyme Trypsin M·EIA sandwich EIA, canine anionic trypsin 200 ng/ml
[13] = target: canine anionic trypsin (canine (dog)); assay: Kodazyme Trypsin M·EIA sandwich EIA, canine anionic trypsin 400 ng/ml
[14] = target: canine cationic trypsin (canine (dog)); assay: Kodazyme Trypsin M·EIA sandwich EIA, canine cationic trypsin 100 ng/ml
[15] = target: canine cationic trypsin (canine (dog)); assay: Kodazyme Trypsin M·EIA sandwich EIA, canine cationic trypsin 200 ng/ml
[16] = target: canine cationic trypsin (canine (dog)); assay: Kodazyme Trypsin M·EIA sandwich EIA, canine cationic trypsin 400 ng/ml
[17] = target: canine anionic trypsin (canine (dog)); assay: Kodazyme Trypsin M·EIA sandwich EIA, canine anionic trypsin 12.5 ng/ml
[18] = target: canine anionic trypsin (canine (dog)); assay: Kodazyme Trypsin M·EIA sandwich EIA, canine anionic trypsin 6.25 ng/ml
[19] = target: canine cationic trypsin (canine (dog)); assay: Kodazyme Trypsin M·EIA sandwich EIA, canine cationic trypsin 12.5 ng/ml
[20] = target: canine cationic trypsin (canine (dog)); assay: Kodazyme Trypsin M·EIA sandwich EIA, canine cationic trypsin 6.25 ng/ml
[21] = target: standard human trypsin sample enclosed in the Kodazyme Trypsin M·EIA kit (human); assay: Kodazyme Trypsin M·EIA sandwich EIA, standard human trypsin 10 ng/ml, duplicate
[22] = target: standard human trypsin sample enclosed in the Kodazyme Trypsin M·EIA kit (human); assay: Kodazyme Trypsin M·EIA sandwich EIA, standard human trypsin 50 ng/ml, duplicate
[23] = target: canine anionic trypsin (canine (dog)); assay: Kodazyme Trypsin M·EIA sandwich EIA, canine anionic trypsin 25 ng/ml, duplicate
[24] = target: canine anionic trypsin (canine (dog)); assay: Kodazyme Trypsin M·EIA sandwich EIA, canine anionic trypsin 50 ng/ml, duplicate
[25] = target: standard human trypsin sample enclosed in the Kodazyme Trypsin M·EIA kit (human); assay: Kodazyme Trypsin M·EIA sandwich EIA, standard human trypsin 200 ng/ml, duplicate
[26] = target: standard human trypsin sample enclosed in the Kodazyme Trypsin M·EIA kit (human); assay: Kodazyme Trypsin M·EIA sandwich EIA, standard human trypsin 400 ng/ml, duplicate
[27] = target: canine cationic trypsin (canine (dog)); assay: Kodazyme Trypsin M·EIA sandwich EIA, canine cationic trypsin 25 ng/ml, duplicate
[28] = target: canine cationic trypsin (canine (dog)); assay: Kodazyme Trypsin M·EIA sandwich EIA, canine cationic trypsin 50 ng/ml, duplicate
[29] = target: canine anionic trypsin (canine (dog)); assay: Kodazyme Trypsin M·EIA sandwich EIA, canine anionic trypsin 100 ng/ml, duplicate
[30] = target: canine anionic trypsin (canine (dog)); assay: Kodazyme Trypsin M·EIA sandwich EIA, canine anionic trypsin 200 ng/ml, duplicate
[31] = target: canine anionic trypsin (canine (dog)); assay: Kodazyme Trypsin M·EIA sandwich EIA, canine anionic trypsin 400 ng/ml, duplicate
[32] = target: canine cationic trypsin (canine (dog)); assay: Kodazyme Trypsin M·EIA sandwich EIA, canine cationic trypsin 100 ng/ml, duplicate
[33] = target: canine cationic trypsin (canine (dog)); assay: Kodazyme Trypsin M·EIA sandwich EIA, canine cationic trypsin 200 ng/ml, duplicate
[34] = target: canine cationic trypsin (canine (dog)); assay: Kodazyme Trypsin M·EIA sandwich EIA, canine cationic trypsin 400 ng/ml, duplicate
[35] = target: canine anionic trypsin (canine (dog)); assay: Kodazyme Trypsin M·EIA sandwich EIA, canine anionic trypsin 12.5 ng/ml, duplicate
[36] = target: canine anionic trypsin (canine (dog)); assay: Kodazyme Trypsin M·EIA sandwich EIA, canine anionic trypsin 6.25 ng/ml, duplicate
[37] = target: canine cationic trypsin (canine (dog)); assay: Kodazyme Trypsin M·EIA sandwich EIA, canine cationic trypsin 12.5 ng/ml, duplicate
[38] = target: canine cationic trypsin (canine (dog)); assay: Kodazyme Trypsin M·EIA sandwich EIA, canine cationic trypsin 6.25 ng/ml, duplicate

An A492 [1] of 0.065, an A492 [2] of 0.224 and an A492 [3] of 0.023 were found for “human trypsin MAb of Kodazyme Trypsin M·EIA (antibody)” in this work. For the same substance, the A492 [4] was 0.021, the A492 [5] was 0.399 and the A492 [6] was 0.538. It also gave an A492 [7] of 1.15, an A492 [8] of 1.58 and an A492 [9] of 0.023. It also gave an A492 [10] of 0.017, an A492 [11] of 0.02 and an A492 [12] of 0.023. For the same substance, the A492 [13] was 0.032, the A492 [14] was 0.029 and the A492 [15] was 0.017. It also gave an A492 [16] of 0.021, an A492 [17] of 0.02 and an A492 [18] of 0.023. It also gave an A492 [19] of 0.021, an A492 [20] of 0.048 and an A492 [21] of 0.131. The A492 [22] was 0.202, the A492 [23] was 0.021 and the A492 [24] was 0.02. For the same substance, the A492 [25] was 0.697, the A492 [26] was 0.953 and the A492 [27] was 0.018. The A492 [28] was 0.017, the A492 [29] was 0.022 and the A492 [30] was 0.019. For the same substance, the A492 [31] was 0.038, the A492 [32] was 0.019 and the A492 [33] was 0.015. For the same substance, the A492 [34] was 0.019, the A492 [35] was 0.024 and the A492 [36] was 0.023. It also gave an A492 [37] of 0.019 and an A492 [38] of 0.019.
